Drawing on US20220249633A1, this text covers peptide exchange yield for 69 molecules.

Bounds are passed on as bounds.

The target of this assay is HLA-A*24 (human). In words: UV-exchange ELISA, exchange yield grade. A general note: An ELISA detects its analyte on a solid surface through an enzyme-linked reagent.
The molecule VYAIFRILL [… (SEQ ID NO: 239)] came in with a peptide exchange yield of 50 to 75%.

As for IYAGVGEFSF [… (SEQ ID NO: 210)], the peptide exchange yield was greater than 75%.

Consider IYISNSIYF [… (SEQ ID NO: 217)], for which the peptide exchange yield was greater than 75%.

Turning to LYSDAFKFIVF [… (SEQ ID NO: 207)], the peptide exchange yield lay within 50 to 75%.

For the molecule VYQSLSNSL [… (SEQ ID NO: 194)], the peptide exchange yield lay in the range of 50 to 75%.

VYEKNGYIYF [… (SEQ ID NO: 174)] gave a peptide exchange yield of 50 to 75%.

SYAPPSEDLFL [… (SEQ ID NO: 213)]: the peptide exchange yield lay in the range of 20 to 49%.

On to QYLVHVNDL [… (SEQ ID NO: 185)], for which the peptide exchange yield was greater than 75%.

Consider VFTTSSNIF [… (SEQ ID NO: 186)], for which the peptide exchange yield was greater than 75%.

As to IFTDIFHYL [… (SEQ ID NO: 197)], the peptide exchange yield was greater than 75%.

For the molecule AYAANVHYL [… (SEQ ID NO: 187)], the peptide exchange yield is greater than 75%.

As for MYLKLVQLF [… (SEQ ID NO: 226)], the peptide exchange yield was in the range of 20 to 49%.

VYPPYLNYL [… (SEQ ID NO: 181)] gave a peptide exchange yield of 50 to 75%.

For KYIGNLDLL [… (SEQ ID NO: 221)], the peptide exchange yield was greater than 75%.

Take SYAPPSEDLF [… (SEQ ID NO: 212)]: the peptide exchange yield fell in the range of 20 to 49%.

In turn, LYSELNKWSF [… (SEQ ID NO: 218)] displayed a peptide exchange yield of 50 to 75%.

SYVKVLHHL [… (SEQ ID NO: 241)] gave a peptide exchange yield of 50 to 75%.

Molecule TYGMVMVTF [… (SEQ ID NO: 230)] gave a peptide exchange yield of 50 to 75%.

Turning to VYLPKIPSW [… (SEQ ID NO: 236)], the peptide exchange yield was in the range of 50 to 75%.

GYIRGSWQF [… (SEQ ID NO: 196)] returned a peptide exchange yield greater than 75%.

As to LYSPVPFTL [… (SEQ ID NO: 175)], the peptide exchange yield was 50 to 75%.

On to LYLENNAQTQF [… (SEQ ID NO: 193)], for which the peptide exchange yield lay in the range of 50 to 75%.

The molecule KYVGQLAVL [… (SEQ ID NO: 237)] displayed a peptide exchange yield of 50 to 75%.

The molecule NYLDVATFL [… (SEQ ID NO: 206)] returned a peptide exchange yield greater than 75%.

In turn, GYNPNRVFF [… (SEQ ID NO: 201)] yielded a peptide exchange yield of 50 to 75%.

Molecule FYINGQYQF [… (SEQ ID NO: 176)] came in with a peptide exchange yield of 50 to 75%.

Turning to SYSEIKDFL [… (SEQ ID NO: 220)], the peptide exchange yield was greater than 75%.

Molecule NYSSAVQKF [… (SEQ ID NO: 178)] yielded a peptide exchange yield of 50 to 75%.

Take VYKDSIYYI [… (SEQ ID NO: 235)]: the peptide exchange yield was in the range of 50 to 75%.

Take VFIFKGNEF [… (SEQ ID NO: 172)]: the peptide exchange yield is greater than 75%.

SYLPAIWLL [… (SEQ ID NO: 234)] gave a peptide exchange yield of 50 to 75%.

With SYLKAVFNL [… (SEQ ID NO: 219)], the peptide exchange yield lay in the range of 50 to 75%.

The molecule AFIETPIPLF [… (SEQ ID NO: 209)] returned a peptide exchange yield greater than 75%.

KYLQVVGMF [… (SEQ ID NO: 180)] showed a peptide exchange yield of 50 to 75%.

In turn, FYVNVKEQF [… (SEQ ID NO: 216)] came in with a peptide exchange yield of 50 to 75%.

The molecule VYFKAGLDVF [… (SEQ ID NO: 177)] had a peptide exchange yield of 50 to 75%.

Take QYLEKYYNL [… (SEQ ID NO: 173)]: the peptide exchange yield was greater than 75%.

YYLSDSPLL [… (SEQ ID NO: 232)]: the peptide exchange yield was 50 to 75%.

In turn, VHFEDTGKTLLF [… (SEQ ID NO: 244)] gave a peptide exchange yield of 50 to 75%.

For the molecule VFIHHLPQF [… (SEQ ID NO: 200)], the peptide exchange yield lay in the range of 50 to 75%.

Turning to VYGEPRELL [… (SEQ ID NO: 242)], the peptide exchange yield lay within 50 to 75%.

In the case of EYLSTCSKL [… (SEQ ID NO: 204)], the peptide exchange yield fell in the range of 50 to 75%.

Consider QYLTAAALHNL [… (SEQ ID NO: 233)], for which the peptide exchange yield was 50 to 75%.

SYVASFFLL [… (SEQ ID NO: 215)] displayed a peptide exchange yield of 20 to 49%.

For TYPDGTYTGRIF [… (SEQ ID NO: 191)], the peptide exchange yield was 50 to 75%.

Take SYLNHLNNL [… (SEQ ID NO: 199)]: the peptide exchange yield lay within 50 to 75%.

Consider RYSTFSEIF [… (SEQ ID NO: 192)], for which the peptide exchange yield is 50 to 75%.

In the case of AYIKGGWIL [… (SEQ ID NO: 195)], the peptide exchange yield fell in the range of 50 to 75%.

As for TYIPVGLGRLL [… (SEQ ID NO: 179)], the peptide exchange yield is 50 to 75%.

With YYFFVQEKI [… (SEQ ID NO: 240)], the peptide exchange yield is 50 to 75%.

In turn, GYKTFFNEF [… (SEQ ID NO: 188)] showed a peptide exchange yield of 50 to 75%.

Consider IYQFVADSF [… (SEQ ID NO: 229)], for which the peptide exchange yield lay within 50 to 75%.

For IYQYVADNF [… (SEQ ID NO: 228)], the peptide exchange yield lay within 50 to 75%.

For TFITQSPLL [… (SEQ ID NO: 223)], the peptide exchange yield is greater than 75%.

PYLQDVPRI [… (SEQ ID NO: 183)] gave a peptide exchange yield of 50 to 75%.

Turning to PYFFANQEF [… (SEQ ID NO: 224)], the peptide exchange yield is 50 to 75%.

The molecule KYLMELTLI [… (SEQ ID NO: 214)] returned a peptide exchange yield of 50 to 75%.

As for VYPVVLNQI [… (SEQ ID NO: 205)], the peptide exchange yield fell in the range of 50 to 75%.

Molecule AYAQLGYLLF [… (SEQ ID NO: 182)] had a peptide exchange yield greater than 75%.

TYLEKIDGF [… (SEQ ID NO: 208)] came in with a peptide exchange yield greater than 75%.

Molecule LYSELTETL [… (SEQ ID NO: 190)] gave a peptide exchange yield of 50 to 75%.

In turn, SYLELANTL [… (SEQ ID NO: 243)] returned a peptide exchange yield of 50 to 75%.

As to IYSVGAFENF [… (SEQ ID NO: 184)], the peptide exchange yield is greater than 75%.

The molecule IYRFITERF [… (SEQ ID NO: 227)] registered a peptide exchange yield of 50 to 75%.

The molecule RYVEGIVSL [… (SEQ ID NO: 202)] showed a peptide exchange yield of 50 to 75%.

The molecule VFKSEGAYF [… (SEQ ID NO: 211)] yielded a peptide exchange yield greater than 75%.

AFADVSVKF [… (SEQ ID NO: 231)] returned a peptide exchange yield greater than 75%.

The molecule DYVGFTLKI [… (SEQ ID NO: 198)] had a peptide exchange yield of 20 to 49%.

The molecule TYTNTLERL [… (SEQ ID NO: 225)] gave a peptide exchange yield of 50 to 75%.
